The nature of this data set: label from the status in PepcDB records.
Turning to “MALLLAALLVLLTALLAVRLPAWASALLLGLLAGSGYALGVRSEALPAGALLLLGALAAPRLYLGPRRRKRPERRPPGPKRPAAAGTTAEREALSQRYEILEKVGLGGMATVYKAKDRKTGRLVALKVPQERFLGDPRFVRRFHREAEVLTRMDHPNIVKVYDHGQVEGVHYIAMEFLDGEGLDKLIEERRLSLRQAAAILARVADALKHIHAQGIVHRDIKPGNIMVLKGALREDGVDPRGVRLMDFGIAAGRVLTRLTITGARIGTPVYMSPEQAKGQKLDHRSDIYSLGIVLYEALTGQPPFTGGYETVIHQQIFQMPTPPKQLRPEIPQALSDLVLRMLEKDPAKRPGLDEVVRVLEGPWEEERELPEAQYLLVAVEAKKGAVRLLDLEGTPARLLSGVGSGAGQFPSPPLAVAADPEGGIWVAVFQHGERLVHRLSPQGEVLLSTGPYGMKPGEFLLPVGLAVLEDQVFVLDGETATVSRLDLAGRYQGRFGGQGLGRGTFQDPKALVAAEGHLFVLDYGNRQVQRLTPEGGYLSRYAFRRSREDGALRLLGGVGVGEGRLYLYDVEAVKVRVLDLSGRLLASYPLPLLEGEDRMSLVELLPVGRVLYAARRGSSRIHRISLDTGEALPPLEVYAPVRGLALWRRTP”, the protein production entry is “failed”.
Turning to “MLEQGLDYVVKLAKSKKQILDANPMQYFIRAALAGIYIGFIIVLCFKLGNFFHIADSPATYLAASMFFGIALVLIIYGGAELFTGNTMYFTVATLRKETTISDTLRNWVACYAGNLAGALFFALLFYATGIFEAIDHGHLMNKVVEGKMNTPTMQLFFKAILCNWLVCLACFLPSQVKGDTAKIMIMMLLVFTFFLSGYEHSIANLSLFALSLVSPHPETISFAGAIHNLIPVTIGNIIGGSVFVGMVYHYLTKKVPDVKQEETELVAAQQEEIIPLQAHMKH”, the protein production entry is reported as “failed”.
The entry for “MGMFERDTEIYLDRDALREDYQPENLVGRDTELNRYRAALQPVINGEQPNNIFLYGKTGVGKTAGTRYLIDHLEEDAAKYEDIDLTVKMLNCDGLSSSYQIATRLVNEFRDETSQISTTGYPRATVYDMLWTELDSCGGTIYIVLDEVDHIEDDSILYQLPRARANDNLSSAKIGIIGISNDFSFRDDLSPKVKSSLCEEEIQFPAYDAKELIQILQQRADVAFHDGVLEDGVIELCAAYGAKDAGDARQSLDLLMKTGDLARDKDTDTISEDLVREARDVLERGRIQEGISGLTQHGHLVVYAMVTLDQEGKTPARTRDIRPRYTNFAEKAGIDPLVPRRMRDHLGELSMLGIISAIERNEGRRGGTYREYSLEMDPEMILAALEKTVDDVGIHKSVTNLVDAEATLSDFQST” is “failed”; for “MEGSIDHHVRKAIQIGVNPLQAIQMASLNAAECFKLAKKGAIAPGFTADLLFIEDLQSLAITHVFKNGTCVAKNGKLIVPLEHHHHHH” it is “failed”.
The entry for “MSLTARSVVLSVLLGAHPAWATASELIQLTADFGIKETTLRVALTRMVGAGDLVRSADGYRLSDRLLARQRRQDEAMRPRTRAWHGNWHMLIVTSIGTDARTRAALRTCMHHKRFGELREGVWMRPDNLDLDLESDVAARVRMLTARDEAPADLAGQLWDLSGWTEAGHRLLGDMAAATDMPGRFVVAAAMVRHLLTDPMLPAELLPADWPGAGLRAAYHDFATAMAKRRDATQLLEVTEGHHHHHH” is “not failed”.
The entry for “MTAAIRRTVTFPGVSMARLKSMLGAYNGHLKQIEQRLDVQITHRGDAFYIDGDIDAVERAESLLQRLYNESETSDQISADILHLMIQGSQTDRELMDDSEQEHTGLDNVWLQTPKGRINPRGTNQKRYVQRILQSDISFGIGPAGTGKTYLAVAAAVDMLERNEIQRILLVRPAVEAGEKLGFLPGDLAQKIDPYLRPLYDALYEMLGFEKVAKLIERQVIEVAPLAYMRGRTLNHSFVILDEAQNTTPEQMKMFLTRLGFGSRAVITGDITQVDLPRGQQSGLAHALRVLEPIKEIHITRFHSRDVVRHQLVQKIVEAYEGWDSEQNRLSAEARAERKARQEALMSEHDAAADAQHQEA” is “failed”; for “MLCIPATRDQTVSSHPAGTRQKKLFSQNDYLAPLPLPTGQQPVDSLNIIWRKNEVYIDIGCYSVGSAVMVIWPMMIMFISLAYGLNDIDLLWLGVIITGIPTLMLIHGLLRPTPPPVRFNRQRREVCVPRDNGEYWIVPWESVTAASTQCSSIGQAGRVTMGLLFIGFENPDAEASEDNKHFSMGFNCGGGETAMALWECMRSYMEIGPEVVPESRVGAMPYEKTQIGSIVTSLRKGDVFDVLHGLFFITILGTYLAEKLQNLKLSPPPDLEYPDIIEWSKSLPPEQWATPSPELLAALARQAATS” it is “failed”.

Values taken from a protein production outcome set (Wang et al. 2014).
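Note: failed if final PepcDB status was selected cloned or expressed and not failed if soluble or beyond.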
